In publication doi:10.1101/2022.06.02.493408 (bioRxiv, 2022):
Read-outs that look alike come from different tables or passages of the source.

B1: BetP-ΔN29/E44E45E46/AAA (crystallization mutant BetP^cryst) (natural protein, Corynebacterium glutamicum, UniProt P54582 30-595, looked up)
chain: LENPTNLEGKLADAAAAIILEGEDTQASLNWSVIVPALVIVLATVVWGIGFKDSFTNFASSALSAVVDNLGWAFILFGTVFVFFIVVIAASKFGTIRLGRIDEAPEFRTVSWISMMFAAGMGIGLMFYGTTEPLTFYRNGVPGHDEHNVGVAMSTTMFHWTLHPWAIYAIVGLAIAYSTFRVGRKQLLSSAFVPLIGEKGAEGWLGKLIDILAIIATVFGTACSLGLGALQIGAGLSAANIIEDPSDWTIVGIVSVLTLAFIFSAISGVGKGIQYLSNANMVLAALLAIFVFVVGPTVSILNLLPGSIGNYLSNFFQMAGRTAMSADGTAGEWLGSWTIFYWAWWISWSPFVGMFLARISRGRSIREFILGVLLVPAGVSTVWFSIFGGTAIVFEQNGESIWGDGAAEEQLFGLLHALPGGQIMGIIAMILLGTFFITSADSASTVMGTMSQHGQLEANKWVTAAWGVATAAIGLTLLLSGGDNALSNLQNVTIVAATPFLFVVIGLMFALVKDLSNDVIYLEYREQQRFNARLARERRVHNEHRKRELAAKRRRERKASGAGKRR

How the values were obtained:
[1] = biological target: WT BetP reconstituted in amphipol A8-35 (AMP-BetP) (Corynebacterium glutamicum) (UniProt P54582); assay: cryo-EM structure
[2] = biological target: WT BetP reconstituted in amphipol A8-35 (AMP-BetP) (Corynebacterium glutamicum) (UniProt P54582); assay: cryo-EM structure; remark: listed apart in the source
[3] = biological target: the molecule itself; assay: crystal structure

Molecule	stoichiometry N [1]	stoichiometry N [2]	stoichiometry N [3]
WT BetP reconstituted in amphipol A8-35 (AMP-BetP) (from UniProt P54582 1-595) (natural protein)	3	3	–
B1	–	–	3
